Measurements as given in the supplement of paper PMC9170038.

System: MS2 coat protein
Assay: apparent KD of MS2 coat protein; designed switch direction (-1 OFF switch, 1 ON switch): -1; higher = weaker reporter binding
In short: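 The apparent KD reported per design is the median over clusters of curve fits to normalised cluster fluorescence. The RNA switches were transcribed on Illumina chips by stalled E. coli RNA polymerase. SNAP-549-labelled MS2 coat protein was titrated from 0.7 or 1.5 nM, doubling up to 3 µM, in Tris-HCl pH 7.5 buffer containing KCl, MgCl2, BSA, DTT, tRNA and Tween-20, with no input, 200 uM small-molecule ligand, or an oligonucleotide input.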

GGAUCGAGUGUGAGGAUAUGCUGGUCCUUGGAUCAGCAGAAGGCACAUGAGGAUCACCCAUGUGAAUACGGUCC [JL bmx4 3.15] (puzzle: Brourd's mod of Exclusion 4)
apparent KD of MS2 coat protein (Eterna round: R95, input ligand: microRNA oligo, concentration not stated): 23.8 nM

GGAUGAGAGCAGGAUAUCUUAUAAAUGUAUGAAAGAGAAGGGCUCACAUGAGGAUCACCCAUGUGGUCCUAGAU [jl-ex6-4.73 jandersonlee mod] (Eterna round: R97, puzzle: Exclusion 6)
apparent KD of MS2 coat protein (input ligand: FMN 200 uM): 280 nM | apparent KD of MS2 coat protein (input ligand: none): 35.9 nM

GGAUUACAUGAGGAUCACCCAUGUGAGGAUAUCGAUGUCCAGUAAUACGUGCGGGACUCGAGAAGGCACUUGGA [salish99-ex1-70] (Eterna round: R96, puzzle: Exclusion 1)
apparent KD of MS2 coat protein (input ligand: FMN 200 uM): 432 nM | apparent KD of MS2 coat protein (input ligand: microRNA oligo, concentration not stated): 80.7 nM | apparent KD of MS2 coat protein (input ligand: none): 96.3 nM

GGAUUUACUGAGGAUAUUGCAUCACCCGACUGAUAAGAAGGCAGAACAUGAGGAUCACCCAUGUGGGUACUCAA [Bingo-Bango-5] (Eterna round: R97, puzzle: Exclusion 6)
apparent KD of MS2 coat protein (input ligand: FMN 200 uM): 95 nM | apparent KD of MS2 coat protein (input ligand: none): 105 nM

GGAUUUCGAGGAUAUACACGCAAAUAGGUGUAUCCUUUAGCACAUGAGGAUCACCCAUGUAGAAGGCGGGUACU [Eternabot (L1) Solution 19] (Eterna round: R97, puzzle: Exclusion 2)
apparent KD of MS2 coat protein (input ligand: FMN 200 uM): 136 nM | apparent KD of MS2 coat protein (input ligand: none): 150 nM

GGCACACAUGAGGAUCACCCAUGUCAGGAUAUGUGGCGAUCGUCGAUAGACGAUAGCCACAGAAGGGACAGGCC [Mat - Exclusion 1 - Eli Mod - D22] (Eterna round: R97, puzzle: Exclusion 1)
apparent KD of MS2 coat protein (input ligand: FMN 200 uM): 110 nM | apparent KD of MS2 coat protein (input ligand: none): 69.9 nM

GGCACACAUGAGGAUCACCCAUGUGAGGAUAUGGUGCGAUCGUCGAAAGACGAUAGCACUAGAAGGCACAUGCC [Eli x1 4.06] (Eterna round: R97, puzzle: Exclusion 1)
apparent KD of MS2 coat protein (input ligand: FMN 200 uM): 28.2 nM | apparent KD of MS2 coat protein (input ligand: none): 16.1 nM

GGCACACAUGAGGAUCACCCAUGUGAGGAUAUGUGGCGAUCGUCGAAAGACGAUAGCCAUAGAAGGCACAUGCC [Eli x1 4.08] (Eterna round: R97, puzzle: Exclusion 1)
apparent KD of MS2 coat protein (input ligand: FMN 200 uM): 32.1 nM | apparent KD of MS2 coat protein (input ligand: none): 18.1 nM

GGCAGACAUGAGGAUCACCCAUGUCAGGAUAUGCGGCGAAGUACAGUUAGUGCAUUUGGUAGAAGGGACAAGGA [Eternabot (L1) Solution 100] (Eterna round: R97, puzzle: Exclusion 1)
apparent KD of MS2 coat protein (input ligand: FMN 200 uM): 29.8 nM | apparent KD of MS2 coat protein (input ligand: none): 32.5 nM

GGCAUACCACAAGCUUUUUACAUGAGGAUCACCCAUGUGGUUUUUAGUCUUAUCCCGGGCCCGAUAUCGGGCCCGGG [-33.9, -54.7, A 19%] (Eterna round: R97, puzzle: Sensor, turn-off variant 1)
apparent KD of MS2 coat protein (input ligand: FMN 200 uM): 36.7 nM | apparent KD of MS2 coat protein (input ligand: none): 38.3 nM

GGCAUCGGAGGAUAUACUUAUGGUGAUACCCGAAGCUUUCUACUUGAGGAUCACCCAAGUAGAAGGCCGAUGCC [jl-ex2.4.81 ViennaUCT mod] (Eterna round: R97, puzzle: Exclusion 2)
apparent KD of MS2 coat protein (input ligand: FMN 200 uM): 11.7 nM | apparent KD of MS2 coat protein (input ligand: none): 12.6 nM

GGCCCGGGAGGAUAUACAUGAGGAUCACCCAUGUUGAAGUUGAAGAUCUUCGGCUUCGGUAGAAGGCCCGGGCC [-35, -32.8 kcal, 23% A, 3, 0] (Eterna round: R97, puzzle: Exclusion 3)
apparent KD of MS2 coat protein (input ligand: FMN 200 uM): 18.2 nM | apparent KD of MS2 coat protein (input ligand: none): 13.6 nM

GGCCGUAAUAAGGAUAUCACUAGCUUCGGCUAGUGAGAAGGUAUUACAUGAGGAUCACCCAUGUGAUCAGGCCA [E6/3-B1] (Eterna round: R97, puzzle: Exclusion 6)
apparent KD of MS2 coat protein (input ligand: FMN 200 uM): 726 nM | apparent KD of MS2 coat protein (input ligand: none): 170 nM
